# According to EP4745153A1, “GLP-1, GIP AND GCG RECEPTOR […] USE THEREOF” (Jiangsu Hengrui Pharmaceuticals Co., Ltd., priority 2023, dated 2025):
# Read-outs that look alike come from different tables or passages of the source. Starred links: 1 amine or outer side, 2 acyl side, 3 side chain; linkers in the order of their positions; H or OH if unused. Non-standard residues stand in square brackets, D forms with d. Residues, ends and D or L forms follow the SMILES beside them. Groups on a side chain read outwards from the residue. No end group written: not given here. *: point of attachment. C20 diacid = O=C(O)CCCCCCCCCCCCCCCCCCC(=O)*; γGlu = O=C(O)[C@H](CCC(=O)[*:2])N[*:1]; αMeL = CC(C)C[C@](C)(N)C(=O)O; αMeK = C[C@](N)(CCCCN)C(=O)O; αMeS = C[C@](N)(CO)C(=O)O; AEEA = NCCOCCOCC(=O)O; Aib = CC(C)(N)C(=O)O
# What was measured:
# [1] = target: T1, human GIPR (Homo sapiens, UniProt P48546); test: cAMP HTRF agonist activity assay in CHO-K1 cells expressing GIPR; assay type: cell-based
# T1 construct: expressed in transfected cells; host or cells: CHO-K1 clonal cell line
# T1 sequence (P48546 22-466): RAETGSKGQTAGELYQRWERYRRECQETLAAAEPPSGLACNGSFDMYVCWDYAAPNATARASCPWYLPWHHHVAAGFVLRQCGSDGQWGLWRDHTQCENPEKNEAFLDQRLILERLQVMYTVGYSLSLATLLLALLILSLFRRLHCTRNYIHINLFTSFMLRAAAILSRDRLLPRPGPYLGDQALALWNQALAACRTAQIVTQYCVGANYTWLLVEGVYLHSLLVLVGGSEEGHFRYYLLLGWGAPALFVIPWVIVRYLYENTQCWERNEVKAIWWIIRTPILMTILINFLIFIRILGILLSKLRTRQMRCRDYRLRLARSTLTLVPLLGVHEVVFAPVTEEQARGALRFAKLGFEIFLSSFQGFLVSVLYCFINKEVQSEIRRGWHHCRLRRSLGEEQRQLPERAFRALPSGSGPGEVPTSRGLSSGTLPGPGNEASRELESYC
# Procedure, shortened: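 Clonal CHO-K1 lines, 5000 cells/well, exposed to polypeptides for 30 min at 37°C. Intracellular cAMP read by HTRF (cAMP-d2 conjugate plus anti-cAMP-Eu cryptate in lysis buffer). Relative EC50 from four-parameter nonlinear fit of percent maximum response against concentration.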
# [2] = Pharmacokinetics in mice after single intravenous injection; set-up: species or system C57 mice; conditions: mouse, in vivo, male C57 mice, single intravenous dose 200 nmol/kg, plasma
# Procedure, shortened: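 Male C57 mice (~25 g, 4-6 weeks, n=3) received a single i.v. dose of 200 nmol/kg in 1×PBS. Plasma collected from 5 min to 72 h was methanol-precipitated with verapamil internal standard and quantified by LC-MS (ESI positive, MRM); PK parameters were calculated by PKSolver.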
# [3] = Solubility in the vehicle; assay type: physicochemical; conditions: stated in the summary only, no test example
# [4] = target: human glucagon-like peptide-1 receptor (human, UniProt P43220 24-463); test: cell-based or functional assay
# [5] = target: T2, human glucose-dependent insulinotropic polypeptide receptor (human, UniProt P48546 22-466); test: cell-based or functional assay
# T2 sequence (looked up): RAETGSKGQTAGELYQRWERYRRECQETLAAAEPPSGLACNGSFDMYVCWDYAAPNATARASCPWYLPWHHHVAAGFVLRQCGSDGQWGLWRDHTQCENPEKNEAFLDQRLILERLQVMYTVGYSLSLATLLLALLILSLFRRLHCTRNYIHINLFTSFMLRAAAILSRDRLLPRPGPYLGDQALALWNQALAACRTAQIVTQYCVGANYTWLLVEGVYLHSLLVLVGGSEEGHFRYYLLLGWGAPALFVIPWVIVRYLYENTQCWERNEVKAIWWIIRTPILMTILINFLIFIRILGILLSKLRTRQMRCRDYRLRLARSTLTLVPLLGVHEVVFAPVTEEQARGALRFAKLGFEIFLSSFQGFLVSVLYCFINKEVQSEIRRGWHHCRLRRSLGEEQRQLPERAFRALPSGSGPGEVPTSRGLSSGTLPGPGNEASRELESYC
# [6] = target: T3, human glucagon receptor (human, UniProt P47871 26-477); test: cell-based or functional assay
# [7] = target: T2, human glucose-dependent insulinotropic …; test: cell-based or functional assay; remark: listed apart in the source
# [8] = target: T3, human glucagon receptor; test: cell-based or functional assay; remark: listed apart in the source
# T3 sequence (P47871 26-477): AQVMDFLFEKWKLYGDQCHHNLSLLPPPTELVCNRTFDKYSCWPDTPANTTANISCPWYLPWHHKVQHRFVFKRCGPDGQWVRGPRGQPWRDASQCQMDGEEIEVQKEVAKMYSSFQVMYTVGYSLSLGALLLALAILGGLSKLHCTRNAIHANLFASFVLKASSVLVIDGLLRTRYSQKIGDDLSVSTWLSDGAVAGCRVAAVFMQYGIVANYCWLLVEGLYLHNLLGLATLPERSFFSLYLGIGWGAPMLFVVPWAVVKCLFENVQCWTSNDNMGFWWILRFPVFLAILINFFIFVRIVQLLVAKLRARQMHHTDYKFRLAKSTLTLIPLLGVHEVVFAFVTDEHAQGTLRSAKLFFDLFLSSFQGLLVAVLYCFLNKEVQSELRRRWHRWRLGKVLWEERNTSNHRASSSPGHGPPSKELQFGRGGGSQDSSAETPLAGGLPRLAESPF
molecule,measurement,setting,value
CC[C@H](C)[C@H](NC(=O)[C@H](CC(C)C)NC(=O)[C@H](Cc1c[nH]c2ccccc12)NC(=O)[C@H](CCC(=O)O)NC(=O)[C@@H](NC(=O)[C@H](Cc1ccccc1)NC(=O)[C@H](CCC(=O)O)NC(=O)[C@](C)(CO)NC(=O)[C@H](C)NC(=O)[C@H](C)NC(=O)[C@H](CCCCN)NC(=O)[C@H](CCCCNC(=O)COCCOCCNC(=O)COCCOCCNC(=O)CC[C@H](NC(=O)CCCCCCCCCCCCCCCCCCC(=O)O)C(=O)O)NC(=O)[C@H](CCC(=O)O)NC(=O)[C@H](CC(C)C)NC(=O)[C@H](CC(C)C)NC(=O)[C@](C)(CCCCN)NC(=O)[C@H](CO)NC(=O)[C@H](Cc1ccc(O)cc1)NC(=O)[C@H](CC(=O)O)NC(=O)[C@H](CO)NC(=O)[C@@H](NC(=O)[C@H](Cc1ccccc1)NC(=O)[C@@H](NC(=O)CNC(=O)[C@H](Cc1c[nH]cn1)NC(=O)C(C)(C)NC(=O)[C@@H](N)Cc1c[nH]cn1)[C@@H](C)O)[C@@H](C)O)C(C)C)C(=O)N[C@@H](CCC(=O)O)C(=O)NCC(=O)NCC(=O)N1CCC[C@H]1C(=O)N[C@@H](CO)C(=O)N[C@@H](CO)C(=O)NCC(=O)N[C@@H](C)C(=O)N1CCC[C@H]1C(=O)N1CCC[C@H]1C(=O)N1CCC[C@H]1C(=O)N[C@@H](CO)C(N)=O [Compound 0126] (H-H[Aib]HGTFTSDYS[αMeK]LLEK([AEEA-AEEA-γGlu-C20 diacid])KAA[αMeS]EFVEWLIEGGPSSGAPPPS-NH2),EC50,[1],0.002 nM
same,AUC(0-inf),[2],103 µM·h
same,C0,[2],7.17 µM
same,clearance,[2]; read-out: CLp,1.98 mL/h/kg
same,half-life,[2]; read-out: T1/2 (converted),10.1 h
same,solubility in the vehicle,[3],≥ 20 mg/mL
H[Aib]HGTFTSDYSILLEK([AEEA-AEEA-γGlu-C20 diacid])KAAQEFVEWLLAGGPSSGAPPPS-NH2 (N-terminus assumed; SMILES CC[C@H](C)[C@H](NC(=O)[C@H](CO)NC(=O)[C@H](Cc1ccc(O)cc1)NC(=O)[C@H](CC(=O)O)NC(=O)[C@H](CO)NC(=O)[C@@H](NC(=O)[C@H](Cc1ccccc1)NC(=O)[C@@H](NC(=O)CNC(=O)[C@H](Cc1c[nH]cn1)NC(=O)C(C)(C)NC(=O)[C@@H](N)Cc1c[nH]cn1)[C@@H](C)O)[C@@H](C)O)C(=O)N[C@@H](CC(C)C)C(=O)N[C@@H](CC(C)C)C(=O)N[C@@H](CCC(=O)O)C(=O)N[C@@H](CCCCNC(=O)COCCOCCNC(=O)COCCOCCNC(=O)CC[C@H](NC(=O)CCCCCCCCCCCCCCCCCCC(=O)O)C(=O)O)C(=O)N[C@@H](CCCCN)C(=O)N[C@@H](C)C(=O)N[C@@H](C)C(=O)N[C@@H](CCC(N)=O)C(=O)N[C@@H](CCC(=O)O)C(=O)N[C@@H](Cc1ccccc1)C(=O)N[C@H](C(=O)N[C@@H](CCC(=O)O)C(=O)N[C@@H](Cc1c[nH]c2ccccc12)C(=O)N[C@@H](CC(C)C)C(=O)N[C@@H](CC(C)C)C(=O)N[C@@H](C)C(=O)NCC(=O)NCC(=O)N1CCC[C@H]1C(=O)N[C@@H](CO)C(=O)N[C@@H](CO)C(=O)NCC(=O)N[C@@H](C)C(=O)N1CCC[C@H]1C(=O)N1CCC[C@H]1C(=O)N1CCC[C@H]1C(=O)N[C@@H](CO)C(N)=O)C(C)C) [Compound No. 0120],Activity against human GLP-1R (EC50 nM),[4],0.026 nM
same,Activity against human GIPR (EC50 nM),[5],0.002 nM
same,Activity against human GCGR (EC50 nM),[6],0.121 nM
H[Aib]HGTFTSDYSI[αMeL]LEK([AEEA-AEEA-γGlu-C20 diacid])KAAQEFVEWLLAGGPSSGAPPPS-NH2 (N-terminus assumed; SMILES CC[C@H](C)[C@H](NC(=O)[C@H](CO)NC(=O)[C@H](Cc1ccc(O)cc1)NC(=O)[C@H](CC(=O)O)NC(=O)[C@H](CO)NC(=O)[C@@H](NC(=O)[C@H](Cc1ccccc1)NC(=O)[C@@H](NC(=O)CNC(=O)[C@H](Cc1c[nH]cn1)NC(=O)C(C)(C)NC(=O)[C@@H](N)Cc1c[nH]cn1)[C@@H](C)O)[C@@H](C)O)C(=O)N[C@@](C)(CC(C)C)C(=O)N[C@@H](CC(C)C)C(=O)N[C@@H](CCC(=O)O)C(=O)N[C@@H](CCCCNC(=O)COCCOCCNC(=O)COCCOCCNC(=O)CC[C@H](NC(=O)CCCCCCCCCCCCCCCCCCC(=O)O)C(=O)O)C(=O)N[C@@H](CCCCN)C(=O)N[C@@H](C)C(=O)N[C@@H](C)C(=O)N[C@@H](CCC(N)=O)C(=O)N[C@@H](CCC(=O)O)C(=O)N[C@@H](Cc1ccccc1)C(=O)N[C@H](C(=O)N[C@@H](CCC(=O)O)C(=O)N[C@@H](Cc1c[nH]c2ccccc12)C(=O)N[C@@H](CC(C)C)C(=O)N[C@@H](CC(C)C)C(=O)N[C@@H](C)C(=O)NCC(=O)NCC(=O)N1CCC[C@H]1C(=O)N[C@@H](CO)C(=O)N[C@@H](CO)C(=O)NCC(=O)N[C@@H](C)C(=O)N1CCC[C@H]1C(=O)N1CCC[C@H]1C(=O)N1CCC[C@H]1C(=O)N[C@@H](CO)C(N)=O)C(C)C) [Compound No. 0125],Activity against human GIPR (EC50 nM),[7],0.002 nM
same,Activity against human GCGR (EC50 nM),[8],0.071 nM
H[Aib]HGTFTSDYS[αMeK]ILEK([AEEA-AEEA-γGlu-C20 diacid])KAAQEFVEWLLAGGPSSGAPPPS-NH2 (N-terminus assumed; SMILES CC[C@H](C)[C@H](NC(=O)[C@](C)(CCCCN)NC(=O)[C@H](CO)NC(=O)[C@H](Cc1ccc(O)cc1)NC(=O)[C@H](CC(=O)O)NC(=O)[C@H](CO)NC(=O)[C@@H](NC(=O)[C@H](Cc1ccccc1)NC(=O)[C@@H](NC(=O)CNC(=O)[C@H](Cc1c[nH]cn1)NC(=O)C(C)(C)NC(=O)[C@@H](N)Cc1c[nH]cn1)[C@@H](C)O)[C@@H](C)O)C(=O)N[C@@H](CC(C)C)C(=O)N[C@@H](CCC(=O)O)C(=O)N[C@@H](CCCCNC(=O)COCCOCCNC(=O)COCCOCCNC(=O)CC[C@H](NC(=O)CCCCCCCCCCCCCCCCCCC(=O)O)C(=O)O)C(=O)N[C@@H](CCCCN)C(=O)N[C@@H](C)C(=O)N[C@@H](C)C(=O)N[C@@H](CCC(N)=O)C(=O)N[C@@H](CCC(=O)O)C(=O)N[C@@H](Cc1ccccc1)C(=O)N[C@H](C(=O)N[C@@H](CCC(=O)O)C(=O)N[C@@H](Cc1c[nH]c2ccccc12)C(=O)N[C@@H](CC(C)C)C(=O)N[C@@H](CC(C)C)C(=O)N[C@@H](C)C(=O)NCC(=O)NCC(=O)N1CCC[C@H]1C(=O)N[C@@H](CO)C(=O)N[C@@H](CO)C(=O)NCC(=O)N[C@@H](C)C(=O)N1CCC[C@H]1C(=O)N1CCC[C@H]1C(=O)N1CCC[C@H]1C(=O)N[C@@H](CO)C(N)=O)C(C)C) [Compound No. 0119],Activity against human GLP-1R (EC50 nM),[4],0.023 nM
same,Activity against human GIPR (EC50 nM),[5],0.005 nM
same,Activity against human GCGR (EC50 nM),[6],0.087 nM
